Experimental data as given in doi:10.1101/2024.07.21.604498.

Target: hERG channel with a deleted PAS domain fused to Citrine (S620T) (human) (UniProt Q12809)
Assay: FRET or BRET

Substance: hERG PAS domain fused to CFP (from UniProt Q12809 1-135) (domain or fragment)
- Ratio A (F436/F500): 0.37
- Ratio A-Ratio A0 (proportional to FRET efficiency): 0.21
